Consider 7 molecules from US20230212587A1, “Mutant Hydroxyphenylpyruvate Dioxygenase Polypeptide, Encoding Gene Thereof and Use Therefor” (Beijing Dabeinong Biotechnology Co., Ltd., priority 2019, published 2023).

For the assay, the system named is Arabidopsis thaliana T1 plants. The assay is described as follows: Topramezone tolerance of transgenic Arabidopsis thaliana T1 plants (pesticide damage grade by bleached leaf area, score, resistance evaluation). The class given is in vivo. Also on record: score: scale not given here. The following applies: for Grade 0 / Grade 1 / Grade 2 / Grade 3: number of plants. The text has this:
The Arabidopsisthaliana T1 plants into which the AsHPPDm-F372A-02 nucleotide sequence was introduced, Arabidopsis thaliana T1 plants into which the AsHPPD-02 nucleotide sequence was introduced and wild-type Arabidopsisthaliana plants (18 days after sowing) were sprayed with topramezone at four different concentrations, i.e., 25 g ai/ha (one-fold field concentration, 1×), 50 g ai/ha (two-fold field concentration, 2×), 100 g ai/ha (four-fold field concentration, 4×) and 0 g ai/ha (water, 0×) to determine the tolerance of Arabidopsisthaliana to the herbicide. The degree of damage caused by the herbicide was measured for each plant according to the proportion of bleached leaf area (the proportion of bleached leaf area=bleached leaf area/total leaf area×100%) 7 days after spraying (7 DAT): the case where there is basically no bleached phenotype is defined as grade 0, the case where the proportion of bleached leaf area is less than 50% is defined as grade 1,the case where the proportion of bleached leaf area is more than 50% is defined as grade 2, and the case where the proportion of bleached leaf area is 100% grade is defined as grade 3.
According to the method as described above in point 6 of Example 1, the aforementioned Arabidopsisthaliana T1 plants and wild-type Arabidopsisthaliana plants (18 days after sowing) were sprayed with topramezone at three different concentrations respectively, i.e., 25 g ai/ha (one-fold field concentration, 1×), 100 g ai/ha (four-fold field concentration, 4×) and 0 g ai/ha(water, 0×) to detect the tolerance of Arabidopsisthaliana to the herbicide.
According to the method as described above in point 6 of Example 1, the aforementioned Arabidopsisthaliana T1 plants and wild-type Arabidopsisthaliana plants (18 days after sowing) were sprayed with topramezone at three different concentrations respectively, i.e., 25 g ai/ha (one-fold field concentration, 1x), 100 g ai/ha (four-fold field concentration, 4x) and 0 g ai/ha (water, 0x) to detect the tolerance of Arabidopsisthaliana to the herbicide.
According to the method as described above in point 6 of Example 1, the above-mentioned Arabidopsisthaliana T1 plants, Arabidopsisthaliana T1 plants into which the AsHPPD-02 nucleotide sequence was introduced, Arabidopsisthaliana T1 plants into which the PfHPPD-02 nucleotide sequence was introduced, and wild-type Arabidopsisthaliana plants (18 days after sowing) were sprayed with topramezone at four different concentrations respectively, that is, 25 g ai/ha (one-fold field concentration, 1x), 50 g ai/ha (two-fold field concentration, 2x), 100 g ai/ha (four-fold field concentration, 4x) and 0 g ai/ha (water, Ox) to detect the herbicide tolerance of Arabidopsisthaliana.
According to the method as described in point 6 of Example 1, the above-mentioned Arabidopsisthaliana T1 plants and wild-type Arabidopsisthaliana plants (18 days after sowing) were sprayed with topramezone at two different concentrations respectively, that is, 25 g ai/ha (one-fold field concentration, 1x) and 100 g ai/ha (four-fold field concentration, 4x) to detect the herbicide tolerance of Arabidopsisthaliana,. […]

[1] abbreviates: topramezone 25 g ai/ha, mutation combination, Table 8.
[2] abbreviates: topramezone 100 g ai/ha, mutation combination, Table 8.
[3] abbreviates: saturation mutation of HPPD from Avena sativa source (label F372X = AsHPPDm-F372X), topramezone 25, 50, 100 g ai/ha.
The mark [4] stands for this setting: topramezone 25 g ai/ha (1x), HPPD from Avena sativa source.
The mark [5] stands for this setting: topramezone 50 g ai/ha (2x), HPPD from Avena sativa source.
[6] abbreviates: topramezone 100 g ai/ha (4x), HPPD from Avena sativa source.

Numbering of substitutions follows the chain as printed.

B1: AsHPPDm-A110: Avena sativa HPPD with deletion of alanine at position 110, SEQ ID NO: 414 (protein)
chain: MPPTPATATGAAAAAVTPEHAARSFPRVVRVNPRSDRFPVLSFHHVELWCADAASAAGRFSFALGAPLAARSDLSTGNSAHASLLLRSGALAFLFTAPYAPPPQEAATAATASIPSFSADAARTFAAAHGLAVRSVGVRVADAAEAFRVSVAGGARPAFAPADLGHGFGLAEVELYGDVVLRFVSYPDETDLPFLPGFERVSSPGAVDYGLTRFDHVVGNVPEMAPVIDYMKGFLGFHEFAEFTAEDVGTTESGLNSVVLANNSEAVLLPLNEPVHGTKRRSQIQTYLEYHGGPGVQHIALASNDVLRTLREMRARTPMGGFEFMAPPQAKYYEGVRRIAGDVLSEEQIKECQELGVLVDRDDQGVLLQIFTKPVGDRPTFFLEMIQRIGCMEKDEVGQEYQKGGCGGFGKGNFSELFKSIEDYEKSLEVKQSVVAQKS
modifications: AsHPPDm-A110 Amino Acid Sequence
As to B1, the “tolerance to topramezone, in words” value (Arabidopsis thaliana T1 plants sprayed with topramezone) is recorded as “a certain tolerance to low concentration of topramezone”. Under setting [1], the “Grade 0 (number of plants)” value amounted to 4, the “Grade 1 (number of plants)” value stood at 16, the “Grade 2 (number of plants)” value was determined as 0 and the “Grade 3 (number of plants)” value is reported as 0. Moreover, under setting [1], the “Resistance Grade” value is “Moderately resistant” and the score was 27. In addition, under setting [2], the “Grade 0 (number of plants)” value is reported as 0, the “Grade 1 (number of plants)” value is on record as 0, the “Grade 2 (number of plants)” value is recorded as 14 and the “Grade 3 (number of plants)” value was 6. Besides, under setting [2], the “Resistance Grade” value is given as “Non-resistant” and the score turned out to be 77.

B2: F372G (protein, listed as Avena sativa)
chain: MPPTPATATGAAAAAVTPEHAARSFPRVVRVNPRSDRFPVLSFHHVELWCADAASAAGRFSFALGAPLAARSDLSTGNSAHASLLLRSGALAFLFTAPYAPPPQEAATAAATASIPSFSADAARTFAAAHGLAVRSVGVRVADAAEAFRVSVAGGARPAFAPADLGHGFGLAEVELYGDVVLRFVSYPDETDLPFLPGFERVSSPGAVDYGLTRFDHVVGNVPEMAPVIDYMKGFLGFHEFAEFTAEDVGTTESGLNSVVLANNSEAVLLPLNEPVHGTKRRSQIQTYLEYHGGPGVQHIALASNDVLRTLREMRARTPMGGFEFMAPPQAKYYEGVRRIAGDVLSEEQIKECQELGVLVDRDDQGVLLQIGTKPVGDRPTFFLEMIQRIGCMEKDEVGQEYQKGGCGGFGKGNFSELFKSIEDYEKSLEVKQSVVAQKS
modifications: AsHPPD Amido Acid Sequence
For B2, under setting [3], the “tolerance to topramezone, in words” value is “better tolerance”. Under setting [4], the “Resistance Grade” value is on record as “Highly resistant”, the score is 0, the “Grade 0” value was 20 and the “Grade 1” value is given as 0. Also, under setting [4], the “Grade 2” value is 0 and the “Grade 3” value amounted to 0. In addition, under setting [5], the “Resistance Grade” value is “Highly resistant”, the score was 0, the “Grade 0” value is given as 20 and the “Grade 1” value is reported as 0. Besides, under setting [5], the “Grade 2” value stood at 0 and the “Grade 3” value worked out at 0. Also, under setting [6], the “Resistance Grade” value is on record as “Highly resistant”, the score was determined as 0, the “Grade 0” value is on record as 20 and the “Grade 1” value worked out at 0. Besides, under setting [6], the “Grade 2” value is on record as 0 and the “Grade 3” value was 0.

B3: F372N (protein, listed as Avena sativa)
chain: B2 chain with G372N
modifications: AsHPPD Amido Acid Sequence
Consider B3, for which, under setting [3], the “tolerance to topramezone, in words” value is “better tolerance”. Under setting [4], the “Resistance Grade” value is recorded as “Highly resistant”, the score turned out to be 7, the “Grade 0” value is recorded as 18 and the “Grade 1” value amounted to 0. Besides, under setting [4], the “Grade 2” value is recorded as 2 and the “Grade 3” value is given as 0. Further, under setting [5], the “Resistance Grade” value was “Highly resistant”, the score was 0, the “Grade 0” value turned out to be 20 and the “Grade 1” value came out at 0. For the same molecule, under setting [5], the “Grade 2” value turned out to be 0 and the “Grade 3” value is on record as 0. Also, under setting [6], the “Resistance Grade” value is “Highly resistant”, the score is 0, the “Grade 0” value is recorded as 20 and the “Grade 1” value is listed as 0. Besides, under setting [6], the “Grade 2” value worked out at 0 and the “Grade 3” value is recorded as 0.

B4: F372I (protein, listed as Avena sativa)
chain: B2 chain with G372I
modifications: AsHPPD Amido Acid Sequence
With B4, under setting [3], the “tolerance to topramezone, in words” value is “better tolerance”.

B5: F372Q (protein, listed as Avena sativa)
chain: B2 chain with G372Q
modifications: AsHPPD Amido Acid Sequence
Take B5: the “tolerance to topramezone, in words” value under setting [3] is on record as “better tolerance”. Under setting [4], the “Resistance Grade” value is “Highly resistant”, the score turned out to be 0, the “Grade 0” value is given as 20 and the “Grade 1” value stood at 0. Moreover, under setting [4], the “Grade 2” value was 0 and the “Grade 3” value is reported as 0. Moreover, under setting [5], the “Resistance Grade” value is listed as “Highly resistant”, the score turned out to be 0, the “Grade 0” value came out at 20 and the “Grade 1” value was 0. Besides, under setting [5], the “Grade 2” value is on record as 0 and the “Grade 3” value was 0. Moreover, under setting [6], the “Resistance Grade” value was “Highly resistant”, the score is reported as 0, the “Grade 0” value is recorded as 20 and the “Grade 1” value was found to be 0. Under setting [6], the “Grade 2” value worked out at 0 and the “Grade 3” value was 0.

B6: F372D (protein, listed as Avena sativa)
chain: B2 chain with G372D
modifications: AsHPPD Amido Acid Sequence
Consider B6, for which, under setting [3], the “tolerance to topramezone, in words” value was “better tolerance”. Further, under setting [4], the “Resistance Grade” value is on record as “Highly resistant”, the score was 7, the “Grade 0” value amounted to 16 and the “Grade 1” value was determined as 4. Under setting [4], the “Grade 2” value is reported as 0 and the “Grade 3” value is 0. In addition, under setting [5], the “Resistance Grade” value is reported as “Highly resistant”, the score was determined as 0, the “Grade 0” value came out at 20 and the “Grade 1” value stood at 0. Under setting [5], the “Grade 2” value amounted to 0 and the “Grade 3” value is reported as 0. Moreover, under setting [6], the “Resistance Grade” value was “Highly resistant”, the score stood at 0, the “Grade 0” value is reported as 20 and the “Grade 1” value worked out at 0. Further, under setting [6], the “Grade 2” value turned out to be 0 and the “Grade 3” value is 0.

B7: F372V (protein, listed as Avena sativa)
chain: B2 chain with G372V
modifications: AsHPPD Amido Acid Sequence
On to B7, for which the “tolerance to topramezone, in words” value under setting [3] was “better tolerance”. Besides, under setting [4], the “Resistance Grade” value is listed as “Highly resistant”, the score was 0, the “Grade 0” value is 20 and the “Grade 1” value is reported as 0. Also, under setting [4], the “Grade 2” value is given as 0 and the “Grade 3” value is reported as 0. Under setting [5], the “Resistance Grade” value is recorded as “Highly resistant”, the score was 0, the “Grade 0” value amounted to 20 and the “Grade 1” value is 0. For the same molecule, under setting [5], the “Grade 2” value is on record as 0 and the “Grade 3” value is listed as 0. Under setting [6], the “Resistance Grade” value is “Highly resistant”, the score was found to be 0, the “Grade 0” value came out at 20 and the “Grade 1” value is recorded as 0. For the same molecule, under setting [6], the “Grade 2” value is listed as 0 and the “Grade 3” value is listed as 0.
